Measured values taken from the supplement of paper PMC6757056.
± gives the standard deviation of the averaged measurements.

B1: library; a variant is named by its letters at N, in order (parent)
chain: GCUGUCACCGAGAAACUGUGAAGUAUAUCUUAAACCUGGGCACUUAAAAGAUAUAUGGAGUUAGUAGUGCAACCUGCUCGGUCUGAUGAGUCCNNNNNNGGACGAAACAGC

Assays:
[1] = variants of: B1; experiment: FACS-Seq fitted mean relative fluorescence mCherry/BFP without ligand (log10 relative fluorescence); HEK293T; ligand: cyclic di-GMP (c-di-GMP-II aptamer); higher = higher reporter protein expression; conditions: ligand present: no
Summary of the method: (§1)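 Fluorescence is reported as a normalized fitted mean of sorted-bin read counts. Lentivirally transduced HEK293T libraries (mCherry ribozyme-switch reporter, EF1α-BFP marker) were enriched, treated with or without ligand for 48 h, and sorted into 6 mCherry/BFP bins for MiSeq sequencing of PCR-amplified genomic DNA. The normal fit was on log10(mCherry/BFP), scaled to five spiked-in control ribozymes.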

[2] = variants of: B1; experiment: normalized RNA/DNA level without ligand (relative to sTRSVctl = 100) (log10 (% of sTRSVctl)); HEK293T; ligand: cyclic di-GMP (c-di-GMP-II aptamer); higher = less ribozyme self-cleavage, higher mRNA level; conditions: reporter: mCherry (pCS4076), ligand present: no
Method: (§2)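 Hammerhead (sTRSV) ribozyme switch libraries with a ligand aptamer grafted on stem I and a randomized N4-6 loop II, cloned into the 3' UTR of mCherry and transiently transfected into HEK293T cells; RNA-Seq 72 h post transfection with ligand added 1 h before transfection; RNA read count / plasmid DNA read count normalized to the non-cleaving sTRSVctl (x100), log10; sequences with >100 DNA reads. FACS-Seq: lentiviral library sorted into 6 bins after 48 h ligand, log-normal fit mean of mCherry/BFP scaled to controls. Printed sequences are partial switch sequences.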

[3] = variants of: B1; experiment: FACS-Seq fitted mean relative fluorescence mCherry/BFP with ligand (log10 relative fluorescence); HEK293T; ligand: cyclic di-GMP (c-di-GMP-II aptamer); ligand concentration (+) FACS-Seq: 1 mM; higher = higher reporter protein expression; conditions: ligand present: yes
Summary of the method: as §1

[4] = variants of: B1; experiment: normalized RNA/DNA level with ligand (relative to sTRSVctl = 100) (log10 (% of sTRSVctl)); HEK293T; ligand: cyclic di-GMP (c-di-GMP-II aptamer); ligand concentration (+) RNA-Seq: 1 mM; higher = less ribozyme self-cleavage, higher mRNA level; conditions: reporter: mCherry (pCS4076), ligand present: yes
Method: as §2

UUUCGA
FACS-Seq fitted mean (log10) [1]: 0.0382 ± 0.21 | normalized RNA/DNA level without ligand (log10) [2]: 1.82 ± 0.041 | FACS-Seq fitted mean (log10) [3]: 0.251 ± 0.061 | normalized RNA/DNA level with ligand (log10) [4]: 1.89 ± 0.079

CCUUAA
FACS-Seq fitted mean (log10) [1]: -0.397 ± 0.009 | normalized RNA/DNA level without ligand (log10) [2]: 1.45 ± 0.092 | FACS-Seq fitted mean (log10) [3]: -0.161 ± 0.043 | normalized RNA/DNA level with ligand (log10) [4]: 1.63 ± 0.12

AAGGGG
FACS-Seq fitted mean (log10) [1]: -0.499 ± 0.044 | normalized RNA/DNA level without ligand (log10) [2]: 1.47 ± 0.087 | FACS-Seq fitted mean (log10) [3]: -0.103 ± 0.12 | normalized RNA/DNA level with ligand (log10) [4]: 1.63 ± 0.1

AACUCC
FACS-Seq fitted mean (log10) [1]: 0.000732 ± 0.015 | normalized RNA/DNA level without ligand (log10) [2]: 1.815 ± 0.0033 | FACS-Seq fitted mean (log10) [3]: 0.225 ± 0.013 | normalized RNA/DNA level with ligand (log10) [4]: 1.91 ± 0.097

AACAUG
FACS-Seq fitted mean (log10) [1]: 0.0898 ± 0.039 | normalized RNA/DNA level without ligand (log10) [2]: 1.54 ± 0.053 | FACS-Seq fitted mean (log10) [3]: 0.286 ± 0.039 | normalized RNA/DNA level with ligand (log10) [4]: 1.72 ± 0.081

CCGAUG
FACS-Seq fitted mean (log10) [1]: -0.912 ± 0.22 | normalized RNA/DNA level without ligand (log10) [2]: 1.09 ± 0.038 | FACS-Seq fitted mean (log10) [3]: -0.634 ± 0.095 | normalized RNA/DNA level with ligand (log10) [4]: 1.32 ± 0.16

AAAGCU
FACS-Seq fitted mean (log10) [1]: -0.569 ± 0.092 | normalized RNA/DNA level without ligand (log10) [2]: 1.63 ± 0.063 | FACS-Seq fitted mean (log10) [3]: -0.245 ± 0.025 | normalized RNA/DNA level with ligand (log10) [4]: 1.78 ± 0.099

GUUCAU
FACS-Seq fitted mean (log10) [1]: -0.4248 ± 0.00049 | normalized RNA/DNA level without ligand (log10) [2]: 1.69 ± 0.027 | FACS-Seq fitted mean (log10) [3]: -0.137 ± 0.0014 | normalized RNA/DNA level with ligand (log10) [4]: 1.85 ± 0.092

CCUUCU
FACS-Seq fitted mean (log10) [1]: -0.619 ± 0.0079 | normalized RNA/DNA level without ligand (log10) [2]: 1.6166 ± 0.0015 | FACS-Seq fitted mean (log10) [3]: -0.341 ± 0.038 | normalized RNA/DNA level with ligand (log10) [4]: 1.8 ± 0.063

AAACAA
FACS-Seq fitted mean (log10) [1]: -0.921 ± 0.12 | normalized RNA/DNA level without ligand (log10) [2]: 1.44 ± 0.051 | FACS-Seq fitted mean (log10) [3]: -0.77 ± 0.014 | normalized RNA/DNA level with ligand (log10) [4]: 1.62 ± 0.1

CGGGUC
FACS-Seq fitted mean (log10) [1]: -0.589 ± 0.12 | normalized RNA/DNA level without ligand (log10) [2]: 1.81 ± 0.032 | FACS-Seq fitted mean (log10) [3]: -0.527 ± 0.034 | normalized RNA/DNA level with ligand (log10) [4]: 1.9 ± 0.057

CAUCAA
FACS-Seq fitted mean (log10) [1]: -0.3769 ± 0.0032 | normalized RNA/DNA level without ligand (log10) [2]: 1.32 ± 0.035 | FACS-Seq fitted mean (log10) [3]: -0.0581 ± 0.076 | normalized RNA/DNA level with ligand (log10) [4]: 1.57 ± 0.057

CGAAGA
FACS-Seq fitted mean (log10) [1]: -0.38091 ± 0.00015 | normalized RNA/DNA level without ligand (log10) [2]: 1.37 ± 0.096 | FACS-Seq fitted mean (log10) [3]: -0.0195 ± 0.04 | normalized RNA/DNA level with ligand (log10) [4]: 1.65 ± 0.075

CGUACU
FACS-Seq fitted mean (log10) [1]: -0.584 ± 0.039 | normalized RNA/DNA level without ligand (log10) [2]: 1.43 ± 0.087 | FACS-Seq fitted mean (log10) [3]: -0.327 ± 0.022 | normalized RNA/DNA level with ligand (log10) [4]: 1.66 ± 0.12

AAUGGC
FACS-Seq fitted mean (log10) [1]: -0.236 ± 0.066 | normalized RNA/DNA level without ligand (log10) [2]: 1.65 ± 0.033 | FACS-Seq fitted mean (log10) [3]: 0.153 ± 0.011 | normalized RNA/DNA level with ligand (log10) [4]: 1.81 ± 0.061

CUAUUA
FACS-Seq fitted mean (log10) [1]: -0.459 ± 0.052 | normalized RNA/DNA level without ligand (log10) [2]: 1.38 ± 0.033 | FACS-Seq fitted mean (log10) [3]: -0.243 ± 0.052 | normalized RNA/DNA level with ligand (log10) [4]: 1.6 ± 0.064

UGGGAA
FACS-Seq fitted mean (log10) [1]: -0.259 ± 0.11 | normalized RNA/DNA level without ligand (log10) [2]: 1.57 ± 0.12 | FACS-Seq fitted mean (log10) [3]: -0.113 ± 0.048 | normalized RNA/DNA level with ligand (log10) [4]: 1.77 ± 0.089

GUUUUG
FACS-Seq fitted mean (log10) [1]: 0.124 ± 0.17 | normalized RNA/DNA level without ligand (log10) [2]: 1.61 ± 0.095 | FACS-Seq fitted mean (log10) [3]: 0.384 ± 0.05 | normalized RNA/DNA level with ligand (log10) [4]: 1.8 ± 0.083
